Key:
[1] = test system: SARS-CoV-2 gRNA and sgRNAs; assay type: binding; details: for target (unweighted spectral count of the protein in the RNP capture experiment): LC-MS/MS label-free quantification, probe pool not given; for back-ground (unweighted spectral count of the protein in the control experiment): protein background of the control (e.g. no-probe) experiment; for target (unweighted spectral count in RNP capture): Probe II capture, LC-MS/MS LFQ; for background (unweighted spectral count in control): no-probe control pull-down, used as background for Probe II
[2] = test system: SARS-CoV-2 gRNA; assay type: binding; details: for target (unweighted spectral count of the protein in the RNP capture): LC-MS/MS, Probe I sample (first 199 lines of Table 2)

B1: PGK2 (protein, UniProt P07205 2-417, looked up)
Phosphoglycerate kinase 2: SLSKKLTLDKLDVRGKRVIMRVDFNVPMKKNQITNNQRIKASIPSIKYCLDNGAKAVVLMSHLGRPDGVPMPDKYSLAPVAVELKSLLGKDVLFLKDCVGAEVEKACANPAPGSVILLENLRFHVEEEGKGQDPSGKKIKAEPDKIEAFRASLSKLGDVYVNDAFGTAHRAHSSMVGVNLPHKASGFLMKKELDYFAKALENPVRPFLAILGGAKVADKIQLIKNMLDKVNEMIIGGGMAYTFLKVLNNMEIGASLFDEEGAKIVKDIMAKAQKNGVRITFPVDFVTGDKFDENAQVGKATVASGISPGWMGLDCGPESNKNHAQVVAQARLIVWNGPLGVFEWDAFAKGTKALMDEIVKATSKGCITVIGGGDTATCCAKWNTEDKVSHVSTGGGASLELLEGKILPGVEALSNM
For B1, the “target (unweighted spectral count of the protein in the RNP capture experiment)” value [1] was 5, the “back-ground (unweighted spectral count of the protein in the control experiment)” value (shortened to “back-ground”) [1] was 1 and the “target (unweighted spectral count in RNP capture)” value ([2]; Probe I capture, […], LC-MS/MS LFQ) was 5. The “background (unweighted spectral count in control)” value (shortened to “background”) ([2]; no-probe control pull-down, used as background for Probe I) was 1.

B2: PA2G4 (protein, UniProt Q9UQ80 2-394, looked up)
Proliferation-associated …: SGEDEQQEQTIAEDLVVTKYKMGGDIANRVLRSLVEASSSGVSVLSLCEKGDAMIMEETGKIFKKEKEMKKGIAFPTSISVNNCVCHFSPLKSDQDYILKEGDLVKIDLGVHVDGFIANVAHTFVVDVAQGTQVTGRKADVIKAAHLCAEAALRLVKPGNQNTQVTEAWNKVAHSFNCTPIEGMLSHQLKQHVIDGEKTIIQNPTDQQKKDHEKAEFEVHEVYAVDVLVSSGEGKAKDAGQRTTIYKRDPSKQYGLKMKTSRAFFSEVERRFDAMPFTLRAFEDEKKARMGVVECAKHELLQPFNVLYEKEGEFVAQFKFTVLLMPNGPMRITSGPFEPDLYKSEMEVQDAELKALLQSSASRKTQKKKKKKASKTAENATSGETLEENEAGD
For B2, the “target (unweighted spectral count of the protein in the RNP capture experiment)” value [1] was 5, the “back-ground” value [1] was 1 and the “target (unweighted spectral count of the protein in the RNP capture)” value ([2]; […]) was 7.

B3: DDX3Y (protein, UniProt O15523 2-660, looked up)
ATP-dependent RNA helicase …: SHVVVKNDPELDQQLANLDLNSEKQSGGASTASKGRYIPPHLRNREASKGFHDKDSSGWSCSKDKDAYSSFGSRDSRGKPGYFSERGSGSRGRFDDRGRSDYDGIGNRERPGFGRFERSGHSRWCDKSVEDDWSKPLPPSERLEQELFSGGNTGINFEKYDDIPVEATGSNCPPHIENFSDIDMGEIIMGNIELTRYTRPTPVQKHAIPIIKGKRDLMACAQTGSGKTAAFLLPILSQIYTDGPGEALKAVKENGRYGRRKQYPISLVLAPTRELAVQIYEEARKFSYRSRVRPCVVYGGADIGQQIRDLERGCHLLVATPGRLVDMMERGKIGLDFCKYLVLDEADRMLDMGFEPQIRRIVEQDTMPPKGVRHTMMFSATFPKEIQMLARDFLDEYIFLAVGRVGSTSENITQKVVWVEDLDKRSFLLDILGATGSDSLTLVFVETKKGADSLEDFLYHEGYACTSIHGDRSQRDREEALHQFRSGKSPILVATAVAARGLDISNVRHVINFDLPSDIEEYVHRIGRTGRVGNLGLATSFFNEKNMNITKDLLDLLVEAKQEVPSWLENMAYEHHYKGGSRGRSKSNRFSGGFGARDYRQSSGSSSSGFGASRGSSSRSGGGGYGNSRGFGGGGYGGFYNSDGYGGNYNSQGVDWWGN
For B3, the “target (unweighted spectral count in RNP capture)” value [1] was 27, the “background” value [1] was 1 and the “target (unweighted spectral count of the protein in the RNP capture)” value ([2]; […]) was 8.

B4: G3BP2: host protein of the core SARS-CoV-2 RNA interactome (protein, UniProt Q9UN86 2-482, looked up)
Ras GTPase-activating …: VMEKPSPLLVGREFVRQYYTLLNKAPEYLHRFYGRNSSYVHGGVDASGKPQEAVYGQNDIHHKVLSLNFSECHTKIRHVDAHATLSDGVVVQVMGLLSNSGQPERKFMQTFVLAPEGSVPNKFYVHNDMFRYEDEVFGDSEPELDEESEDEVEEEQEERQPSPEPVQENANSGYYEAHPVTNGIEEPLEESSHEPEPEPESETKTEELKPQVEEKNLEELEEKSTTPPPAEPVSLPQEPPKAFSWASVTSKNLPPSGTVSSSGIPPHVKAPVSQPRVEAKPEVQSQPPRVREQRPRERPGFPPRGPRPGRGDMEQNDSDNRRIIRYPDSHQLFVGNLPHDIDENELKEFFMSFGNVVELRINTKGVGGKLPNFGFVVFDDSEPVQRILIAKPIMFRGEVRLNVEEKKTRAARERETRGGGDDRRDIRRNDRGPGGPRGIVGGGMMRDRDGRGPPPRGGMAQKLGSGRGTGQMEGRFTGQRR
For B4, the “enrichment in SARS-CoV-2 Probe II RNP capture” value [1] was “enriched”, the “background” value [1] was 1 and the “enrichment in SARS-CoV-2 Probe I RNP capture” value [2] was “enriched”. The “target (unweighted spectral count of the protein in the RNP capture)” value ([2]; […]) was 25.

B5: RBMS1 (protein, UniProt P29558 1-406, looked up)
RNA-binding motif, …: MGKVWKQQMYPQYATYYYPQYLQAKQSLVPAHPMAPPSPSTTSSNNNSSSSSNSGWDQLSKTNLYIRGLPPHTTDQDLVKLCQPYGKIVSTKAILDKTTNKCKGYGFVDFDSPAAAQKAVSALKASGVQAQMAKQQEQDPTNLYISNLPLSMDEQELENMLKPFGQVISTRILRDSSGTSRGVGFARMESTEKCEAVIGHFNGKFIKTPPGVSAPTEPLLCKFADGGQKKRQNPNKYIPNGRPWHREGEVRLAGMTLTYDPTTAAIQNGFYPSPYSIATNRMITQTSITPYIASPVSAYQVQSPSWMQPQPYILQHPGAVLTPSMEHTMSLQPASMISPLAQQMSHLSLGSTGTYMPATSAMQGAYLPQYAHMQTTAVPVEEASGQQQVAVETSNDHSPYTFQPNK
B5 was tested, and the “target (unweighted spectral count in RNP capture)” value [1] was 15, the “background” value [1] was 1 and the “target (unweighted spectral count of the protein in the RNP capture)” value ([2]; […]) was 11.

B6: MYEF2 (protein, UniProt Q9P2K5 1-600, looked up)
Myelin expression factor 2: MADANKAEVPGATGGDSPHLQPAEPPGEPRREPHPAEAEKQQPQHSSSSNGVKMENDESAKEEKSDLKEKSTGSKKANRFHPYSKDKNSGAGEKKGPNRNRVFISNIPYDMKWQAIKDLMREKVGEVTYVELFKDAEGKSRGCGVVEFKDEEFVKKALETMNKYDLSGRPLNIKEDPDGENARRALQRTGGSFPGGHVPDMGSGLMNLPPSILNNPNIPPEVISNLQAGRLGSTIFVANLDFKVGWKKLKEVFSIAGTVKRADIKEDKDGKSRGMGTVTFEQAIEAVQAISMFNGQFLFDRPMHVKMDDKSVPHEEYRSHDGKTPQLPRGLGGIGMGLGPGGQPISASQLNIGGVMGNLGPGGMGMDGPGFGGMNRIGGGIGFGGLEAMNSMGGFGGVGRMGELYRGAMTSSMERDFGRGDIGINQGFGDSFGRLGSAMIGGFAGRIGSSNMGPVGSGISGGMGSMNSVTGGMGMGLDRMSSSFDRMGPGIGAILERSIDMDRGFLSGPMGSGMRERIGSKGNQIFVRNLPFDLTWQKLKEKFSQCGHVMFAEIKMENGKSKGCGTVRFDSPESAEKACRIMNGIKISGREIDVRLDRNA
In the case of B6, the “background” value [1] is reported as 1 and the “target (unweighted spectral count of the protein in the RNP capture)” value ([2]; […]) is reported as 19.

B7: TRA2A (protein, UniProt Q13595 2-282, looked up)
Transformer-2 protein homolog …: SDVEENNFEGRESRSQSKSPTGTPARVKSESRSGSRSPSRVSKHSESHSRSRSKSRSRSRRHSHRRYTRSRSHSHSHRRRSRSRSYTPEYRRRRSRSHSPMSNRRRHTGSRANPDPNTCLGVFGLSLYTTERDLREVFSRYGPLSGVNVVYDQRTGRSRGFAFVYFERIDDSKEAMERANGMELDGRRIRVDYSITKRAHTPTPGIYMGRPTHSGGGGGGGGGGGGGGGGRRRDSYYDRGYDRGYDRYEDYDYRYRRRSPSPYYSRYRSRSRSRSYSPRRY
For B7, the “target (unweighted spectral count in RNP capture)” value [1] was 7, the “background” value [1] was 1 and the “target (unweighted spectral count of the protein in the RNP capture)” value ([2]; […]) was 6.

B8: HNRNPA1L2 (protein, UniProt Q32P51 1-320, looked up)
Heterogeneous nuclear …: MSKSASPKEPEQLRKLFIGGLSFETTDESLRSHFEQWGTLTDCVVMRDPNTKRSRGFGFVTYATVEEVDAAMNTTPHKVDGRVVEPKRAVSREDSQRPGAHLTVKKIFVGGIKEDTEEHHLRDYFEQYGKIEVIEIMTDRGSGKKRGFAFVTFDDHDSVDKIVIQKYHTVKGHNCEVRKALPKQEMASASSSQRGRRGSGNFGGGRGDGFGGNDNFGRGGNFSGRGGFGGSCGGGGYGGSGDGYNGFGNDGSNFGGGGSYNDFGNYNNQSSNFGPMKGGNFGGRSSGPYGGGGQYFAKPQNQGGYGVSSSSSSYGSGRRF
In the case of B8, the “target (unweighted spectral count in RNP capture)” value [1] is reported as 8, the “background” value [1] is reported as 1 and the “target (unweighted spectral count of the protein in the RNP capture)” value ([2]; […]) is reported as 6.

B9: MBNL2 (protein, UniProt Q5VZF2 1-373, looked up)
Muscleblind-like protein 2: MALNVAPVRDTKWLTLEVCRQFQRGTCSRSDEECKFAHPPKSCQVENGRVIACFDSLKGRCSRENCKYLHPPTHLKTQLEINGRNNLIQQKTAAAMLAQQMQFMFPGTPLHPVPTFPVGPAIGTNTAISFAPYLAPVTPGVGLVPTEILPTTPVIVPGSPPVTVPGSTATQKLLRTDKLEVCREFQRGNCARGETDCRFAHPADSTMIDTSDNTVTVCMDYIKGRCMREKCKYFHPPAHLQAKIKAAQHQANQAAVAAQAAAAAATVMAFPPGALHPLPKRQALEKSNGTSAVFNPSVLHYQQALTSAQLQQHAAFIPTGSVLCMTPATSIDNSEIISRNGMECQESALRITKHCYCTYYPVSSSIELPQTAC
B9 was tested, and the “target (unweighted spectral count in RNP capture)” value [1] was 7, the “background” value [1] was 1 and the “target (unweighted spectral count of the protein in the RNP capture)” value ([2]; […]) was 7.

B10: SRSF2 (protein, UniProt Q01130 2-221, looked up)
Serine/arginine-rich splicing …: SYGRPPPDVEGMTSLKVDNLTYRTSPDTLRRVFEKYGRVGDVYIPRDRYTKESRGFAFVRFHDKRDAEDAMDAMDGAVLDGRELRVQMARYGRPPDSHHSRRGPPPRRYGGGGYGRRSRSPRRRRRSRSRSRSRSRSRSRSRYSRSKSRSRTRSRSRSTSKSRSARRSKSKSSSVSRSRSRSRSRSRSRSPPPVSKRESKSRSRSKSPPKSPEEEGAVSS
In the case of B10, the “target (unweighted spectral count of the protein in the RNP capture experiment)” value [1] is reported as 11, the “back-ground” value [1] is reported as 2 and the “target (unweighted spectral count of the protein in the RNP capture)” value ([2]; […]) is reported as 12.

B11: PPP1CB (protein, UniProt P62140 2-327, looked up)
Serine/threonine-protein …: ADGELNVDSLITRLLEVRGCRPGKIVQMTEAEVRGLCIKSREIFLSQPILLELEAPLKICGDIHGQYTDLLRLFEYGGFPPEANYLFLGDYVDRGKQSLETICLLLAYKIKYPENFFLLRGNHECASINRIYGFYDECKRRFNIKLWKTFTDCFNCLPIAAIVDEKIFCCHGGLSPDLQSMEQIRRIMRPTDVPDTGLLCDLLWSDPDKDVQGWGENDRGVSFTFGADVVSKFLNRHDLDLICRAHQVVEDGYEFFAKRQLVTLFSAPNYCGEFDNAGGMMSVDETLMCSFQILKPSEKKAKYQYGGLNSGRPVTPPRTANPPKKR
With B11 the “target (unweighted spectral count in RNP capture)” value [1] was 24, the “background” value [1] was 4 and the “target (unweighted spectral count of the protein in the RNP capture)” value ([2]; […]) was 17.

Source: US20230407373A1 (priority 2020, published 2023)
